Bridges are numbered along the chain shown (N, C = ends). Where no end group is shown, it is not given here. [ ]: non-standard residue; d: D form. Aib = CC(C)(N)C(=O)O
B1: triple agonist peptide of SEQ ID NO: 9 (peptide)
peptide: Y[Aib]EGTFTSDYSEYMEKEAVREFICWLVKGGPSSGAPPPS-NH2
modifications: bridge (positions not given here); not fully specified; also: ring formation between underlined and bold residues, places not given here

What was measured:
Assay in all cases: cell-based or functional assay
human GLP-1 receptor = human GLP-1 receptor (human, UniProt P43220 24-463)
human glucagon receptor = human glucagon receptor (human, UniProt P47871 26-477)
human GIP receptor = biological target: T1, human GIP receptor (human, UniProt P48546 22-466)
T1 sequence (looked up): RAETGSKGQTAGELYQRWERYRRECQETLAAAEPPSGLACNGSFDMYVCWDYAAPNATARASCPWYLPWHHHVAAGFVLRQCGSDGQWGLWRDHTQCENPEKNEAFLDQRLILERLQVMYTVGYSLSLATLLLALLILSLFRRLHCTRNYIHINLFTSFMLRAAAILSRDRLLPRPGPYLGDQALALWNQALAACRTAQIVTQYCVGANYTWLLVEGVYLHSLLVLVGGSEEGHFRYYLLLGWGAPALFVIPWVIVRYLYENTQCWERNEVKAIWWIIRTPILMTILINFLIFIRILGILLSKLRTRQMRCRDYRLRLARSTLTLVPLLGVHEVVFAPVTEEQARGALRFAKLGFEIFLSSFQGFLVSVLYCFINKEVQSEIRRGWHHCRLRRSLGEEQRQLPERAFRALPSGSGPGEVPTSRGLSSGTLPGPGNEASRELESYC

Sequence of human glucagon receptor (P47871 26-477): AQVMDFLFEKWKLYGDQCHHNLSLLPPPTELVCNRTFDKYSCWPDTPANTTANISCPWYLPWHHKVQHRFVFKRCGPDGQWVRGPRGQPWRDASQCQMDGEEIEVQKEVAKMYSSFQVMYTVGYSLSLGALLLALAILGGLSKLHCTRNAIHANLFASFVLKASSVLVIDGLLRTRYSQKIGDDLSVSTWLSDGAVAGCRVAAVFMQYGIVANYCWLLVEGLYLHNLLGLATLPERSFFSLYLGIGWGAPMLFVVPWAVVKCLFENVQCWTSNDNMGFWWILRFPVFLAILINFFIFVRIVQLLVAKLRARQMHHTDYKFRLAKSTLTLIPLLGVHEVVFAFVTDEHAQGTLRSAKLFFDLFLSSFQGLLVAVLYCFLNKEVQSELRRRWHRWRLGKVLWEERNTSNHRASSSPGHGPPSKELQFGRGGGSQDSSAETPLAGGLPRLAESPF

| Binder | In vitro activity relative to native peptide (%), vs. GLP-1 (cAMP accumulation EC50, LANCE cAMP kit, CHO cells) (human GLP-1 receptor) [%] | In vitro activity relative to native peptide (%), vs. Glucagon (cAMP accumulation EC50, LANCE cAMP kit, CHO cells) (human glucagon receptor) [%] | In vitro activity relative to native peptide (%), vs. GIP (cAMP accumulation EC50, LANCE cAMP kit, CHO cells) (human GIP receptor) [%] |
| --- | --- | --- | --- |
| Y[Aib]QGTFTSDCSKYLDEKAAKEFVQWLLDHHPSSGQPPPS-NH2 (bridge 16-20) [triple agonist peptide of SEQ ID NO: 8] | 42.6 | 5.52 | 6.19 |
| Y[Aib]QGTFTSDYSKYLDEKRAKEFVQWLLDQHPSSGQPPPSC-NH2 (bridge 16-20) [triple agonist peptide of SEQ ID NO: 5] | 49.1 | 826 | 35.5 |
| Y[Aib]QGTFTSDYSKYLDERASKDFVQWLLDHHPSSGQPPPSC-NH2 (bridge 16-20) [triple agonist peptide of SEQ ID NO: 10] | 65.3 | 19 | 23.4 |
| Y[Aib]QGTFTSDYSKYLDEQAAKEFVQWLLDHHPSSGQPPPSC-NH2 (bridge 16-20) [triple agonist peptide of SEQ ID NO: 2] | 91.4 | 146 | 150 |
| Y[Aib]QGTFTSDYSKYLDEQRAKEFVQWLLDHHPSSGQPPPSC-NH2 (bridge 16-20) [triple agonist peptide of SEQ ID NO: 1] | 16.6 | 443 | 51.5 |
| Y[Aib]QGTFTSDYSKALDEKAAKDFVQWLKDQHPSSGQPPPSC-NH2 (bridge 16-20) [triple agonist peptide of SEQ ID NO: 7] | 97.8 | 3.62 | 33.9 |
| Y[Aib]QGTFTSDYSIYLDEQRAKEFIAWLLAHHPSSGQPPPSC-NH2 (bridge 16-20) [triple agonist peptide of SEQ ID NO: 4] | 11.2 | 59.9 | 124 |
| Y[Aib]QGTFTSDYSIYLDEKAAKEFVQWLLDQHPSSGQPPPSC-NH2 (bridge 16-20) [triple agonist peptide of SEQ ID NO: 11] | 77.6 | 10.2 | 33.7 |
| B1 | 37 | 26.6 | 11.7 |
| Y[Aib]EGTFTSDYSIQLDKQAA[Aib]AFVQWLIAGGPSSGAPPPSK-NH2 [triple agonist peptide of SEQ ID NO: 12] | 87.2 | 6.6 | 52.8 |
| Y[Aib]QGTFTSDYSKALDEKAAKDFVQWLLDQHPSSGQPPPSC-NH2 (bridge 16-20) [triple agonist peptide of SEQ ID NO: 6] | 89.5 | 78.1 | 513 |
| Y[Aib]QGTFTSDYSKYLDEQRAKEFIAWLLDHHPSSGQPPPSC-NH2 (bridge 16-20) [triple agonist peptide of SEQ ID NO: 3] | 17.4 | 577 | 48.4 |

— patent publication US20230382974A1 (HANMI PHARM, published 2023)
